The values that follow come from US20240043504A1 (published 2024).

Common to all, as to assay: Luminex bead binding, supernatant
Test [1] addresses SARS-CoV-2 Spike Protein (RBD)(R319-F541).mFc (mAb10621-L1) (SARS-CoV-2).
The target of test [2] is Human SARS Coronavirus Spike S1 Subunit Protein (His Tag) (Sino 40150-V08B1) (Human SARS Coronavirus, UniProt P59594 14-667).
The target of test [3] is T1, MERS-CoV (NCoV/Novel coronavirus) Spike Protein (ECD, aa 1-1297, His Tag) (Sino 40069-[change]) (MERS-CoV, UniProt K9N5Q8 18-1297).
T1 sequence: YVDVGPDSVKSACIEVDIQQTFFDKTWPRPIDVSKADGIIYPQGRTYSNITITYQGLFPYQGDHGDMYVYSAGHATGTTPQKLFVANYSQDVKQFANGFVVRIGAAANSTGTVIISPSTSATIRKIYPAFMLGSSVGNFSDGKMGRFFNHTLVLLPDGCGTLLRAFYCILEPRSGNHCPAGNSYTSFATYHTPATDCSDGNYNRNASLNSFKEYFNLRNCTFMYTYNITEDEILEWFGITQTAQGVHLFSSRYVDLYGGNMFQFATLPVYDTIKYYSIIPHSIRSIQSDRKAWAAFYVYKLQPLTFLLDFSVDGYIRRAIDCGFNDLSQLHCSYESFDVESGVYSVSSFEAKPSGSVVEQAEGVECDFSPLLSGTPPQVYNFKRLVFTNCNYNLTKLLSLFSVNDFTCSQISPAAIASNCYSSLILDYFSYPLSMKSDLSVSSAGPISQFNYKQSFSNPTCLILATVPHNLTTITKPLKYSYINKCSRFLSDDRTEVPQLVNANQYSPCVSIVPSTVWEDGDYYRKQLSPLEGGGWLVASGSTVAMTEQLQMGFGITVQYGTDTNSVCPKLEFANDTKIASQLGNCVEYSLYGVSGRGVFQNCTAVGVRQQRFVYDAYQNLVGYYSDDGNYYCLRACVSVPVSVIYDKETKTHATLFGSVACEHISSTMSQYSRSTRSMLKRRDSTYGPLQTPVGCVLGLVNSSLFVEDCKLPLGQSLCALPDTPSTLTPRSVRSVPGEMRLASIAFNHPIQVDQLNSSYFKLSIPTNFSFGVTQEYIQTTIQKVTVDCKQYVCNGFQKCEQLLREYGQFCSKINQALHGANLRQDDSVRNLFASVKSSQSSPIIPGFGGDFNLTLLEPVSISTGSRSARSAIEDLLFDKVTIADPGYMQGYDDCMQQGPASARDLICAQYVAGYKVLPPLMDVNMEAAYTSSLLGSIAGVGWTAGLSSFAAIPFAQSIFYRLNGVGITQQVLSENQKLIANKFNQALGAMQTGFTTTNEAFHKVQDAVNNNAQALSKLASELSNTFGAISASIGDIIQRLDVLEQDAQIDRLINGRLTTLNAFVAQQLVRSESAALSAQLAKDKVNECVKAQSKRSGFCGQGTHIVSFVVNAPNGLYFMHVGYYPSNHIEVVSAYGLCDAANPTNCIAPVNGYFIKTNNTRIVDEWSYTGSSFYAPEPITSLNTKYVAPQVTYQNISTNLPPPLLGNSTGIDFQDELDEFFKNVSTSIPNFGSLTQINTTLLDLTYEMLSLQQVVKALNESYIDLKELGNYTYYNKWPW

The target of test [4] is T2, MERS-CoV (NCoV/Novel coronavirus) Spike Protein fragment (RBD, aa 367-606, His Tag) (Sino 40071-V08B1) (MERS-CoV, UniProt K9N5Q8 367-606).
T2 sequence: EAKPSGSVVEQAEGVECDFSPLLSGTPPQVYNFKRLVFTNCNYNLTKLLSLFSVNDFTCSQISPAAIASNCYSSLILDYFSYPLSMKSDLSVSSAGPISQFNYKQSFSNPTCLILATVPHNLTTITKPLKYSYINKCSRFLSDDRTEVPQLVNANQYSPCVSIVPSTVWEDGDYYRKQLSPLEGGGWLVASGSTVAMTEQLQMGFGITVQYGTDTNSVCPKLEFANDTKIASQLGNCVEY

Test [5] concerns the target T3, MERS-CoV (NCoV/Novel coronavirus) Spike Protein S2 (aa 726-1296, His Tag) (Sino 40070-[change]) (MERS-CoV, UniProt K9N5Q8 726-1296).
T3 sequence: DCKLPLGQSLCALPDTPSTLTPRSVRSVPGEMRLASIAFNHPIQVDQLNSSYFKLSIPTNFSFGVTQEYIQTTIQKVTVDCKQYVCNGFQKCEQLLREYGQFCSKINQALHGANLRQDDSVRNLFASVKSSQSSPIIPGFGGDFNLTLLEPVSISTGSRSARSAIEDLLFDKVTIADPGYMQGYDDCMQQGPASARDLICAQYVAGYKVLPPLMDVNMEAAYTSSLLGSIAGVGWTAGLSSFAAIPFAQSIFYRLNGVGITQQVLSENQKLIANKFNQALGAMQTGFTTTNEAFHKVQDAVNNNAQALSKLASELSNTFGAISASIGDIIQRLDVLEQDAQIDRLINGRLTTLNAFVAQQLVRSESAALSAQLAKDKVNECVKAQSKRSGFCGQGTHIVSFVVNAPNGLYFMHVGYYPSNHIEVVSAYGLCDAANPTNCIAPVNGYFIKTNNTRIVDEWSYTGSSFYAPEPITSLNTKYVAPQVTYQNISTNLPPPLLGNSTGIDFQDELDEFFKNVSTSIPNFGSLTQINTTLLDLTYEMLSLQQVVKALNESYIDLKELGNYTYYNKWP

Test [6] deals with SARS-CoV-2 Spike Protein (RBD)(R319-F541).hFc (mAb10622-L1) (SARS-CoV-2).
Test [7] has as its target Bt-SARS-CoV-2 Spike Protein (RBD)(R319-F541).mFc (mAb10621-L2) (SARS-CoV-2).

B1: mAb11008 (antibody, V domains shown)
VH: EVQLVESGGGLVQPGGSLRLSCAASGFTVSSNYMTWVRQAPGKGLEWVSVIYSGGSTFYADSVKGRFTISRHNSENTLYLQMNSLRAEDTAVYYCARDLAAAGTDYWGQGALVTVSS
VL: DIQLTQSPSFLSASVGDRVTITCWASQGISSYLAWYQQKPGKAPKLLIYAASTLQSGVPSRFSGSGSGTEFTLTISSLQPDDFATYYCQHLNSYLYTFGQGTKLEIK
Take B1: the “Binding signal (MFI)” value in test [1] is 4260 MFI; in test [2] it was 31 MFI; in test [3] it was 18 MFI; in test [4] it was 20 MFI; in test [5], 16 MFI; in test [6], 2570 MFI. For the same molecule, the “Binding signal (MFI)” value in test [7] turned out to be 3050 MFI.

B2: mAb11004 (antibody, V domains shown)
VH: QVQLVESGGGVVQPGRSLRLSCVASGFTFSIYGMDWVRQAPGKGLEWVAVISYDGSNKYYADSVKGRFTISRDNSKNTLYLQMNSLRPEDTAVYYCAKDREAAADAFDIWGQGTMVTVSS
VL: DIQMTQSPSSVSASVGDRVTITCRASQGISSWLAWYQQKPGKAPKLLIYAASSLHSGVPSRFSGSGSGTDFTLTISSLQPEDFATYYCQQANSFRLTFGGGTKVEIK
For B2, the “Binding signal (MFI)” value in test [1] amounted to 4580 MFI; in test [2], 33 MFI; in test [3] it was 15 MFI; in test [4], 26 MFI; in test [5] it was 20 MFI; in test [6], 4880 MFI. In test [7], the “Binding signal (MFI)” value was found to be 4300 MFI.
